Reference: patent US20240002497A1 (Merck Sharp & Dohme, published 2024)
Numbering of substitutions follows the chain as printed. Names and notes keep the numbering of the source.

B1: F010302341 (VHH)
VHH: EVQLVESGGGVVQPGGSLRLSCAASSRQFIRDVFTGWYRQAPGKQRELVARIYNEGNTNYADSAKGRFTISRDNAKKTVYLQMNSLRPEDTALYYCLFSGTISTGREYRSGDYWGQGTLVTVSS
B2: F010302357 (VHH)
VHH: B1 VHH with A64V
B3: F010301870 (VHH)
VHH: EVQLVESGGGVVQPGGSLRLSCATTSRAFIRDVFTGWYRRVPGKERELVARIYNGGNTNYADFAKGRFTISRDNAKKMVYLQMNSLRPEDTALYYCNFSGTINTGREYRSGDYWGQGTLVTVSS
notes: also called F0103464B09(L11V, S68T, T79Y, R81Q, S82aN, N82bS, K83R, G88A, V89L, L93N)
B4: F010302333 (VHH)
VHH: B1 VHH with Q40R
B5: F010302368 (VHH)
VHH: B1 VHH with Q28A, E55G, A64V
notes: also called F0103464B09(L11V, T24A, T25S, R39Q, V40A, E44Q, F62S, A63V, S68T, M77T, T79Y, R81Q, S82aN, N82bS, K83R, G88A, V89L,N99S)
B6: F010302365 (VHH)
VHH: B1 VHH with Q28A, Q40R, E55G
notes: also called F0103464B09(L11V, T24A, T25S, V40A, E44Q, F62S, S68T, M77T, T79Y, R81Q, S82aN, N82bS, K83R, G88A, V89L, N99S)
B7: F010302366 (VHH)
VHH: B1 VHH with Q28A, E55G
notes: also called F0103464B09(L11V, T24A, T25S, R39Q, V40A, E44Q, F62S, S68T, M77T, T79Y, R81Q, S82aN, N82bS, K83R, G88A, V89L, N99S)
B8: F010301867 (VHH)
VHH: EVQLVESGGGLVQPGGSLRLSCATTSRQFIRDVFTGWYRRVPGKERELVARIYNGGNTNYADFAKGRFSISRDNAKKMVTLRMSNLKPEDTGVYYCLFSGTINTGREYRSGDYWGQGTLVTVSS
notes: A28Q vs F0103464B09 (Kabat)
B9: F010301878 (VHH)
VHH: B8 VHH with Q28A, G55E
notes: G54E vs F0103464B09 (Kabat)
B10: F010301880 (VHH)
VHH: B8 VHH with Q28A, G55S
notes: G54S vs F0103464B09 (Kabat)
B11: F010301889 (VHH)
VHH: B8 VHH with Q28A, S99A
notes: S95A vs F0103464B09 (Kabat)
B12: F010301885 (VHH)
VHH: B8 VHH with Q28A, N54E
notes: N53E vs F0103464B09 (Kabat)
B13: F010301883 (VHH)
VHH: B8 VHH with Q28A, I52V
notes: I51V vs F0103464B09 (Kabat)
B14: F010301882 (VHH)
VHH: B8 VHH with Q28A, I30V
notes: I30V vs F0103464B09 (Kabat)
B15: F010301888 (VHH)
VHH: B8 VHH with S26H, Q28A
notes: S26H vs F0103464B09 (Kabat)
B16: F010301887 (VHH)
VHH: B8 VHH with Q28A, R31Q
notes: R31Q vs F0103464B09 (Kabat)
B17: F010301891 (VHH)
VHH: B8 VHH with Q28A, T58V
notes: T57V vs F0103464B09 (Kabat)
B18: F010301884 (VHH)
VHH: B8 VHH with Q28A, N54A
notes: N53A vs F0103464B09 (Kabat)
B19: F010301881 (VHH)
VHH: B8 VHH with Q28A, G55W
notes: G54W vs F0103464B09 (Kabat)
B20: F010301892 (VHH)
VHH: B8 VHH with Q28A, V33L
notes: V33L vs F0103464B09 (Kabat); also called F0103464B09(V33L)
B21: F010301890 (VHH)
VHH: B8 VHH with Q28A, T35V
notes: T35V vs F0103464B09 (Kabat)
B22: F010301886 (VHH)
VHH: B8 VHH with Q28A, N59Q
notes: N58Q vs F0103464B09 (Kabat)
B23: F010302345 (VHH)
VHH: B1 VHH with S26H, N54E, E55G, N59Q
B24: F010302333 (VHH)
VHH: B1 VHH with Q40R
B25: F010302337 (VHH)
VHH: B1 VHH with S26H, Q40R, N54E, E55G, N59Q
B26: F010302346 (VHH)
VHH: B1 VHH with S26H, Q28A, N54E, E55S, N59Q
B27: F010302339 (VHH)
VHH: B1 VHH with S26H, Q28A, Q40R, N54E, E55G, N59Q
B28: F010302351 (VHH)
VHH: B1 VHH with Q40R, N54E, E55S, N59Q, A64V
B29: F010302340 (VHH)
VHH: B1 VHH with S26H, Q28A, V33L, Q40R, N54E, E55S
B30: F010302343 (VHH)
VHH: B1 VHH with N54E, E55S, N59Q
B31: F010302334 (VHH)
VHH: B1 VHH with Q40R, N59Q
B32: F010302348 (VHH)
VHH: B1 VHH with S26H, Q28A, V33L, N54E, E55S
B33: F010302344 (VHH)
VHH: B1 VHH with S26H, N59Q
B34: F010302338 (VHH)
VHH: B1 VHH with S26H, Q28A, Q40R, N54E, E55S, N59Q
B35: F010302341 (VHH)
VHH: B1 VHH
B36: F010302335 (VHH)
VHH: B1 VHH with Q40R, N54E, E55S, N59Q
B37: F010302342 (VHH)
VHH: B1 VHH with N59Q
B38: F010302347 (VHH)
VHH: B1 VHH with S26H, Q28A, N54E, E55G, N59Q
B39: F010302336 (VHH)
VHH: B1 VHH with S26H, Q40R, N59Q
B40: F010302350 (VHH)
VHH: B1 VHH with Q40R, N59Q, A64V

Target: T1, huNav1.7α + β1-β2-β3 (human, UniProt Q15858 1-1988; A5A6L6 19-218; O60939 30-215; Q2KI11 23-215)
T1 construct: also called huNav1.7-beta1-beta2-beta3; huNav1.7-β1-β2-β3
Assay: binding FACS, CHO FlpIn
Method: (§1) Binding of the ISVDs to cell-expressed Nav1.7α was detected via murine anti-Flag (Sigma, catalog #F1804). Briefly, cells were resuspended in FACS buffer (PBS, 10% FBS, NaN₃) and transferred to a 96-well V-bottom plate at 1×10^5 cells/well. Purified FLAG3-tagged ISVD was diluted in FACS buffer and added to the cells for 30 minutes at 4° C. […] Prior to the read-out, the samples were resuspended in 1 μg/mL propidium iodide (Sigma, catalog #P4170) to exclude dead cells. Between each step, the cells were centrifuged for 5 minutes at 200 grams and washed with 100 μL/well FACS buffer.

In order of rising Bmax:
1. B1  100%
2. B2  100%
3. B3  100%
4. B4  100%
5. B5  100%
6. B6  100%
7. B7  100%

In order of falling EC50:
1. B3  10 nM
2. B1  5.3 nM
3. B2  5.3 nM
4. B4  4.1 nM
5. B5  3.9 nM
6. B7  3.7 nM
7. B6  3.1 nM

Target: T2, huNav1.7α + β1-β2-β3 (human, UniProt Q15858 1-1988; A5A6L6 19-218; O60939 30-215; Q2KI11 23-215)
T2 construct: Cell line (CHO FlpIn, HEK FlpIn, transient HEK293T) is named under assay; also called huNav1.7-beta1-beta2-beta3; human Nav1.7α with Navβ1, Navβ2 and Navβ3
Assay: binding FACS, CHO FlpIn cells
Method: as §1

In order of rising EC50:
1. B34  3.4 nM
2. B40  3.5 nM
3. B39  3.6 nM
4. B25  3.9 nM
5. B20  4 nM
6. B31  4 nM
7. B37  4 nM
8. B24  4.1 nM
9. B36  4.1 nM
10. B19  4.2 nM
11. B22  4.3 nM
12. B27  4.3 nM
13. B33  4.3 nM
14. B14  4.5 nM
15. B29  4.6 nM
16. B38  4.6 nM
17. B17  4.7 nM
18. B8  4.8 nM
19. B13  4.8 nM
20. B10  4.9 nM
21. B23  4.9 nM
22. B21  5 nM
23. B26  5 nM
24. B15  5.3 nM
25. B35  5.3 nM
26. B11  5.4 nM
27. B28  5.6 nM
28. B18  6 nM
29. B30  6.4 nM
30. B32  6.7 nM
31. B9  7.1 nM
32. B16  7.5 nM
33. B12  8 nM

In order of rising Bmax:
1. B23  100%
2. B24  100%
3. B25  100%
4. B26  100%
5. B27  100%
6. B28  100%
7. B29  100%
8. B30  100%
9. B31  100%
10. B32  100%
11. B33  100%
12. B34  100%
13. B35  100%
14. B36  100%
15. B37  100%
16. B38  100%
17. B39  100%
18. B40  100%

Target: T3, rhNav1.7α + β1-β2-β3 (rhesus monkey)
T3 construct: also called rhNav1.7-beta1-beta2-beta3; rhesus Nav1.7α
Assay: binding FACS, CHO FlpIn cells
Method: as §1

In order of rising Bmax:
1. B14  43%
2. B17  45%
3. B40  46%
4. B18  47%
5. B13  48%
6. B16  51%
7. B21  58%
8. B37  61%
9. B31  70%
10. B28  72%
11. B10  73%
12. B8  74%
13. B33  78%
14. B39  79%
15. B22  81%
16. B9  83%
17. B30  84%
18. B36  84%
19. B11  92%
20. B15  95%
21. B32  95%
22. B23  96%
23. B29  96%
24. B19  99%
25. B26  99%
26. B12  100%
27. B20  100%
28. B25  100%
29. B27  100%
30. B34  100%
31. B38  100%

In order of rising EC50:
1. B19  5.8 nM
2. B25  6.8 nM
3. B27  6.8 nM
4. B34  7.9 nM
5. B11  8.5 nM
6. B15  8.7 nM
7. B20  9.1 nM
8. B38  9.6 nM
9. B39  9.7 nM
10. B31  11 nM
11. B23  12 nM
12. B26  12 nM
13. B29  13 nM
14. B33  13 nM
15. B36  13 nM
16. B32  14 nM
17. B22  15 nM
18. B28  15 nM
19. B40  15 nM
20. B37  16 nM
21. B12  18 nM
22. B30  18 nM
23. B21  20 nM
24. B8  22 nM
25. B10  24 nM
26. B17  26 nM
27. B9  27 nM
28. B13  34 nM
29. B14  41 nM
30. B18  50 nM
31. B16  59 nM

B24: no binding.
B35: no binding.
